This series concerns the target Adenosine deaminase (Bos taurus) (UniProt P56658). Nature of the series: Binding efficiency towards mammalian Adenosine deaminase from calf intestinal mucosa.

B1: Adenosine deaminase (Bos taurus), P56658 (protein)
chain: MAQTPAFNKPKVELHVHLDGAIKPETILYYGRKRGIALPADTPEELQNIIGMDKPLSLPEFLAKFDYYMPAIAGCREAVKRIAYEFVEMKAKDGVVYVEVRYSPHLLANSKVEPIPWNQAEGDLTPDEVVSLVNQGLQEGERDFGVKVRSILCCMRHQPSWSSEVVELCKKYREQTVVAIDLAGDETIEGSSLFPGHVKAYAEAVKSGVHRTVHAGEVGSANVVKEAVDTLKTERLGHGYHTLEDATLYNRLRQENMHFEVCPWSSYLTGAWKPDTEHPVVRFKNDQVNYSLNTDDPLIFKSTLDTDYQMTKNEMGFTEEEFKRLNINAAKSSFLPEDEKKELLDLLYKAYGMPSPASAEQCL
For the protein B1, the Km (in general, the concentration of substrate that gives half-maximal velocity) amounted to 18.3 µM.

The values are drawn from ChEMBL document CHEMBL1135749, “Stereoselective synthesis and antiviral activity of D-2',3'-didehydro-2',3'-dideoxy-2'-fluoro-4'-thionucleosides” (J Med Chem, 2002).
